According to patent US20180142023A1 (Bristol-Myers Squibb, published 2018):

Target: human CD28 (human, UniProt P10747 19-220)
Assay: cell-based or functional assay

B1: 1h-76 (other)
VL: DIQMTQSPSSLSASVGDRVTITCRASQYIGTRLVWYQQKPGKAPKLLIYQSSLLQSGVPSRFRGSGSGTDFTLTISSLQPEDSATYYCQQTALVPYTFGQGTKVEIKR
B1 was tested, and the “Luciferase assay (EC50)” value was 1800 nM.
